Measured values reported in publication PMC4278767.

How the values were obtained:
[1] = test system: T1, Fis (Pseudomonas putida (strain PaW85?)), ORF:eb421da7; assay: EMSA; settings: EMSA: 24 mM Tris/HCl pH 7.5, 50 mM KCl, 10 mM MgCl2, 1 mM CaCl2, 0.1 mM EDTA, 5% glycerol, 0.05 ug/ul BSA, 0.05 ug/ul salmon sperm DNA, 20 ul, 20 min room …
T1 sequence: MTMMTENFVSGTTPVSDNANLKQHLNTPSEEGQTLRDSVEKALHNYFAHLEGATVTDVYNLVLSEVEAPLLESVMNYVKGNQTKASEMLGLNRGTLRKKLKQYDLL

[2] = test system: T1, Fis (Pseudomonas putida (strain PaW85?)), ORF:eb421da7; assay: DNase I footprinting; settings: EMSA: 24 mM Tris/HCl pH 7.5, 50 mM KCl, 10 mM MgCl2, 1 mM CaCl2, 0.1 mM EDTA, 5% glycerol, 0.05 ug/ul BSA, 0.05 ug/ul salmon sperm DNA, 20 ul, 20 min room …

Sequence: CGTAACAGAGCCCTTTCAGGGGTCTTACGCACAGCCTCGACCAGGCAGTCGACAAACGGGTGGTTAGGGAGATATAGCAGCCGGTGGGGAAGCAACCAGATGGCTTTCTGGGTTAATCCTTTGGTAGAAAAGCCTCAGCGAAAGATCTA (double strand) [lapF promoter fragment with Fis-F2 (wild type)]
- binding [1]: binds
- binding [2]: binds
